In publication PMC4718643, “Characterization of a Mannose-6-Phosphate Isomerase from Bacillus amyloliquefaciens and Its Application in Fructose-6-Phosphate Production” (PLoS ONE, 2015):

Substrate: O=P(O)(O)OC[C@H]1OC(O)[C@@H](O)[C@@H](O)[C@@H]1O
Test: purified protein
Assay type: biochemical, Bacillus amyloliquefaciens
Conditions: 0.5 mM Co2+ (general method), phosphate pH 7.5, 50 °C

B1: BsM6PI (Bacillus subtilis subsp. subtilis str. 168; K96Q) (protein)
chain: MTQSPIFLTPVFKEKIWGGTALRDRFGYSIPSESTGECWAISAHPKGPSTVANGPYKGKTLIELWEEHREVFGGVEGDRFPLLTKLLDVKEDTSIQVHPDDYYAGENEEGELGKTECWYIIDCKENAEIIYGHTARSKTELVTMINSGDWEGLLRRIKIKPGDFYYVPSGTLHALCKGALVLETQQNSDATYRVYDYDRLDSNGSPRELHFAKAVNAATVPHVDGYIDESTESRKGITIKTFVQGEYFSVYKWDINGEAEMAQDESFLICSVIEGSGLLKYEDKTCPLKKGDHFILPAQMPDFTIKGTCTLIVSHI
notes: full length, N-terminal His6 fusion (pET28a, BamHI/SalI), E. coli BL21(DE3), Ni-NTA; primers encode N-terminus MTQS and C-terminus IVSHI
  Km: 12 mM
